T1: GST-Cdc25C, P30307
T1 chain: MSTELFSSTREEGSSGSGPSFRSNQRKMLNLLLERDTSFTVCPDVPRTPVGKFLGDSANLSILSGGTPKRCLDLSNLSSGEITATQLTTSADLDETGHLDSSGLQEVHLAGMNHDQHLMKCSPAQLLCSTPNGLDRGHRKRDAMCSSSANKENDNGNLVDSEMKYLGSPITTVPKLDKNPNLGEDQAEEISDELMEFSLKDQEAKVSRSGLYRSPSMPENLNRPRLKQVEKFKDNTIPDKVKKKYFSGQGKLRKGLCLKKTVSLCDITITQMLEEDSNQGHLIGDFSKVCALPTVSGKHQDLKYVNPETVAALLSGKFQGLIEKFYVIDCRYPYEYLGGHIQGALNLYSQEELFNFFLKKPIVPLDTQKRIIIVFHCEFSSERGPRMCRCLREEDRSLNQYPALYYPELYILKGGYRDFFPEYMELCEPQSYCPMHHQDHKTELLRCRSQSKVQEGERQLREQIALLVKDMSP

B1: GST-Cdc25C (protein)
chain: MSTELFSSTREEGSSGSGPSFRSNQRKMLNLLLERDTSFTVCPDVPRTPVGKFLGDSANLSILSGGTPKRCLDLSNLSSGEITATQLTTSADLDETGHLDSSGLQEVHLAGMNHDQHLMKCSPAQLLCSTPNGLDRGHRKRDAMCSSSANKENDNGNLVDSEMKYLGSPITTVPKLDKNPNLGEDQAEEISDELMEFSLKDQEAKVSRSGLYRSPSMPENLNRPRLKQVEKFKDNTIPDKVKKKYFSGQGKLRKGLCLKKTVSLCDITITQMLEEDSNQGHLIGDFSKVCALPTVSGKHQDLKYVNPETVAALLSGKFQGLIEKFYVIDCRYPYEYLGGHIQGALNLYSQEELFNFFLKKPIVPLDTQKRIIIVFHCEFSSERGPRMCRCLREEDRSLNQYPALYYPELYILKGGYRDFFPEYMELCEPQSYCPMHHQDHKTELLRCRSQSKVQEGERQLREQIALLVKDMSP
B2: 6his-Chk1 (protein)
chain: MAVPFVEDWDLVQTLGEGAYGEVQLAVNRVTEEAVAVKIVDMKRAVDCPENIKKEICINKMLNHENVVKFYGHRREGNIQYLFLEYCSGGELFDRIEPDIGMPEPDAQRFFHQLMAGVVYLHGIGITHRDIKPENLLLDERDNLKISDFGLATVFRYNNRERLLNKMCGTLPYVAPELLKRREFHAEPVDVWSCGIVLTAMLAGELPWDQPSDSCQEYSDWKEKKTYLNPWKKIDSAPLALLHKILVENPSARITIPDIKKDRWYNKPLKKGAKRPRVTSGGVSESPSGFSKHIQSNLDFSPVNSASSEENVKYSSSQPEPRTGLSLWDTSPSYIDKLVQGISFSQPTCPDHMLLNSQLLGTPGSSQNPWQRLVKRMTRFFTKLDADKSYQCLKETCEKLGYQWKKSCMNQVTISTTDRRNNKLIFKVNLLEMDDKILVDFRLSKGDGLEFKRHFLKIKGKLIDIVSSQKIWLPAT

Columns and labels:
[1] = molecular target: 6his-Cdc2, P06493
Sequence of 6his-Cdc2, P06493 (P06493 whole entry, looked up): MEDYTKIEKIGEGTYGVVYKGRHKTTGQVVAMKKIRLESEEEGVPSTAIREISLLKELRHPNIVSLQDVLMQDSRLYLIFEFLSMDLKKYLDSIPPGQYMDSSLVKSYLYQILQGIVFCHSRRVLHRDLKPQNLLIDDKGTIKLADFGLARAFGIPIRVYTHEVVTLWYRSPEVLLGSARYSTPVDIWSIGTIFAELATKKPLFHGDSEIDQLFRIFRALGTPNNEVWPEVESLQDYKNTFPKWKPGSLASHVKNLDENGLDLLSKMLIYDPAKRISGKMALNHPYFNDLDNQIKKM

[2] = molecular target: T1, GST-Cdc25C, P30307

Protein	dephosphorylation of Cdc2 (gel-mobility analysis) [1]	GST-Cdc25 phosphatase activity (loss of slower migrating phosphorylated forms of Cdc2 on gel) [2]	phosphorylation of GST-Cdc25 (32P ATP, SDS-PAGE, autoradiography) [2]
B1	GST-Cdc25 catalyses a reduction in the slower migrating phosphorylated forms of Cdc2		
B2		Prior phosphorylation of GST-Cdc25 by 6his-Chk1 leads to a dosedependent reduction in GST-Cdc25 activity	GST-Cdc25 was phosphorylated by 6his-Chk1 and by 6his-hCDS1

Source: patent publication US6531312
